Reference: ChEMBL document CHEMBL1122575, “Dependence of beta-lactamase stability on substructures within beta-lactam antibiotics” (J Med Chem, 1984)

Assays:
[1] = substrate: CC1(C)S[C@@H]2[C@H](NC(=O)Cc3ccccc3)C(=O)N2[C@H]1C(=O)O; assay: (§1) Stability against beta-lactamase of Staphylococcus aureus
[2] = substrate: CC1(C)SC2[C@H](NC(=O)c3ccccc3)C(=O)N2C1C(=O)O; assay: as §1
[3] = substrate: COc1cccc(OC)c1C(=O)N[C@@H]1C(=O)N2C1SC(C)(C)C2C(=O)O; assay: as §1

B1: Beta-lactamase (Staphylococcus aureus), P00807 (protein)
chain: MKKLIFLIVIALVLSACNSNSSHAKELNDLEKKYNAHIGVYALDTKSGKEVKFNSDKRFAYASTSKAINSAILLEQVPYNKLNKKVHINKDDIVAYSPILEKYVGKDITLKALIEASMTYSDNTANNKIIKEIGGIKKVKQRLKELGDKVTNPVRYEIELNYYSPKSKKDTSTPAAFGKTLNKLIANGKLSKENKKFLLDLMLNNKSGDTLIKDGVPKDYKVADKSGQAITYASRNDVAFVYPKGQSEPIVLVIFTNKDNKSDKPNDKLISETAKSVMKEF
B1 was tested, and the Km [1] was 12 µM, the Km [2] was 33 µM and the Km [3] was 5000 µM.
